Reference: patent US20170158742A1
Where “and” joins values, the source holds several entries; their conditions need not be identical. Equal entries are not always repeated.

Legend:
[1] = target: AF4/FMR2 family, member 4 (human) (UniProt Q9UHB7)
[2] = target: Additional sex combs like 1 (Drosophila) (human) (UniProt Q8IXJ9)
Aurora kinase A (human) = Aurora kinase A (human) (UniProt O14965)
[3] = target: CDKN2A interacting protein (human) (UniProt Q9NXV6)
[4] = target: Calcium channel, voltage-dependent, beta 1 subunit (human) (UniProt Q02641)
[5] = target: Calcium/calmodulin-dependent protein kinase II alpha (human) (UniProt Q9UQM7)
[6] = target: Checkpoint suppressor 1/Forkhead box N3 (human) (UniProt O00409)
[7] = target: Choline kinase alpha (human) (UniProt P35790)
Cortactin (human) = Cortactin (human) (UniProt Q14247)
Cyclin B3 (human) = Cyclin B3 (human) (UniProt Q8WWL7)
[8] = target: DIM1 dimethyladenosine transferase 1 homolog (S. cerevisiae) (human) (UniProt Q9UNQ2)
[9] = target: Elongation factor 1 homolog (ELF1, S. cerevisiae) (human) (UniProt P60002)
[10] = target: Eukaryotic translation initiation factor 1 A, Y-linked (human) (UniProt O14602)
[11] = target: Immunoglobulin (CD79A) binding protein 1 (human) (UniProt P78318)
[12] = target: Microtubule-associated protein 2 (human) (UniProt P11137)
[13] = target: NIMA (never in mitosis gene a)-related kinase 7 (human) (UniProt Q8TDX7)
[14] = target: Nuclear speckle splicing regulatory protein 1 (human) (UniProt Q9H0G5)
[15] = target: Piccolo (presynaptic cytomatrix protein) (human) (UniProt Q9Y6V0)
[16] = target: Potassium channel tetramerisation domain containing 18 (human) (UniProt Q6PI47)
[17] = target: Protein kinase C, iota (human) (UniProt P41743)
[18] = target: RAD51 associated protein 1 (human) (UniProt Q96B01)
[19] = target: Rtf1, Paf1/RNA polymerase II complex component, homolog (S. cerevisiae) (human) (UniProt Q92541)
[20] = target: SLAIN motif family, member 2 (human) (UniProt Q9P270)
[21] = target: Signal recognition particle 19kDa (human) (UniProt P09132)
[22] = target: Ubiquitin-conjugating enzyme E2S (human) (UniProt Q16763)
[23] = target: Vaccinia related kinase 1 (human) (UniProt Q99986)
[24] = target: WAS/WASL interacting protein family, member 1 (human) (UniProt O43516)
[25] = target: WD repeat domain 5 (human) (UniProt P61964)
[26] = target: p 53-regulated DDA3 (DDA3)/proline/serine-rich coiled-coil 1 (human) (UniProt Q6PGN9)
[27] = target: Eukaryotic translation initiation factor 1 A, X-linked (human) (UniProt P47813)
Sequence of Eukaryotic translation initiation factor 1 A, X-linked (human) (P47813 whole entry): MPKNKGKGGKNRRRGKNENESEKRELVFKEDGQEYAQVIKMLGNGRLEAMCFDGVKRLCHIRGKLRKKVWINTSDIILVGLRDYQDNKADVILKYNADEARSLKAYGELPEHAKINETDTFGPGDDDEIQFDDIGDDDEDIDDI

Sequence of Signal recognition particle 19kDa (human) (P09132 whole entry): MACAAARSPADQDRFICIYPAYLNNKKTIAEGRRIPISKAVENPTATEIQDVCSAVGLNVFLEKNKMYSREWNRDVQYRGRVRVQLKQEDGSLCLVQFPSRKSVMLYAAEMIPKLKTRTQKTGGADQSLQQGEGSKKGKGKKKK
Sequence of Additional sex combs like 1 (Drosophila) (human) (Q8IXJ9 other isoform, or with tags, fused parts or gaps limits assumed): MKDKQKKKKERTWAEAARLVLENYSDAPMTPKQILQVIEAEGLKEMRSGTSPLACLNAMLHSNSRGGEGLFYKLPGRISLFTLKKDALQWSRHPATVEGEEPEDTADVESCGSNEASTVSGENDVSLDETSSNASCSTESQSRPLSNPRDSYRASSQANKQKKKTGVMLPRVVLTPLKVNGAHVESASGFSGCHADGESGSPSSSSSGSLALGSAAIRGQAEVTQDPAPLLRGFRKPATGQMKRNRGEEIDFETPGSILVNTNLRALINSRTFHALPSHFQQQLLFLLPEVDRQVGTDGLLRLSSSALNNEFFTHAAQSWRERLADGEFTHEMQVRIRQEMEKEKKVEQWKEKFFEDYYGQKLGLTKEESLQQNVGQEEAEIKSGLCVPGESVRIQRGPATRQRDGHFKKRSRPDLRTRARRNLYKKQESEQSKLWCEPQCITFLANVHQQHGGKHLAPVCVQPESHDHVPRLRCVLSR
Sequence of Nuclear speckle splicing regulatory protein 1 (human) (Q9H0G5 whole entry): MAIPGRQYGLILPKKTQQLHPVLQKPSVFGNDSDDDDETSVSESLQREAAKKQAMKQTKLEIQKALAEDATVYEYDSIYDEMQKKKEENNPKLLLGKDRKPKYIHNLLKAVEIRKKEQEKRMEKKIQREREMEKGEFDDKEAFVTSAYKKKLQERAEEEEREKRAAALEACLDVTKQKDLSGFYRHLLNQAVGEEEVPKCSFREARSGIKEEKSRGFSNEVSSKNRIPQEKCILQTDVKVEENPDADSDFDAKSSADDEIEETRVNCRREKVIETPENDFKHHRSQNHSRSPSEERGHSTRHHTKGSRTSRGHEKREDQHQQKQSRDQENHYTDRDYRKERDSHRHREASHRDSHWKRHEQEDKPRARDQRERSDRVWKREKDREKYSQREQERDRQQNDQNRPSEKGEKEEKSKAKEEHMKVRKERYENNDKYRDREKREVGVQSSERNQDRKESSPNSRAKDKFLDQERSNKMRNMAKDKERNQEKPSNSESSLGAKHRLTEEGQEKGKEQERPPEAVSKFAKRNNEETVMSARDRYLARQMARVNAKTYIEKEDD
Sequence of Eukaryotic translation initiation factor 1 A, Y-linked (human) (O14602 whole entry): as the sequence (P47813 whole entry) above, with M50L counted along it
Sequence of CDKN2A interacting protein (human) (Q9NXV6 whole entry): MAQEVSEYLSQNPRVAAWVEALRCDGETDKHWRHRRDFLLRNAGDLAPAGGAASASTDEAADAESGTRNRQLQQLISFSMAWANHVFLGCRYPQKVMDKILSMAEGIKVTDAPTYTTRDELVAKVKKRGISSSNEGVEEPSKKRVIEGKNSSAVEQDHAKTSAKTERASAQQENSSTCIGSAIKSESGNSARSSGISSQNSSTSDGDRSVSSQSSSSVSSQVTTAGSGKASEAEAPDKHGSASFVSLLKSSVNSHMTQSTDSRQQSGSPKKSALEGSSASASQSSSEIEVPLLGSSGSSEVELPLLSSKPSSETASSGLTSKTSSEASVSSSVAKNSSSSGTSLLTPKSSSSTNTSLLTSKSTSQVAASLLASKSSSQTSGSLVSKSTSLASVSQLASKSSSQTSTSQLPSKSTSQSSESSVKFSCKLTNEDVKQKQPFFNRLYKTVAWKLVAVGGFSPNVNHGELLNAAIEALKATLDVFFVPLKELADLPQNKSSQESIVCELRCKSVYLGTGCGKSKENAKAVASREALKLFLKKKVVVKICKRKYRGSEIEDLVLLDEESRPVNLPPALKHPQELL
Sequence of DIM1 dimethyladenosine transferase 1 homolog (S. cerevisiae) (human) (Q9UNQ2 whole entry): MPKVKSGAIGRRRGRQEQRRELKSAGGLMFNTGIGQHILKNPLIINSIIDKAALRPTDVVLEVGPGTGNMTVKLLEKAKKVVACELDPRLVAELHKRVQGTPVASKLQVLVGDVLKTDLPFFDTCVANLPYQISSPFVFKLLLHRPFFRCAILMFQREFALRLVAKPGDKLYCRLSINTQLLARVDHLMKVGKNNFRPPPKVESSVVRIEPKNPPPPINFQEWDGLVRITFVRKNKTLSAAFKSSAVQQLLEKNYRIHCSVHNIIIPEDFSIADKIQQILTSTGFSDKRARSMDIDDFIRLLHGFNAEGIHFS
Sequence of NIMA (never in mitosis gene a)-related kinase 7 (human) (Q8TDX7 whole entry): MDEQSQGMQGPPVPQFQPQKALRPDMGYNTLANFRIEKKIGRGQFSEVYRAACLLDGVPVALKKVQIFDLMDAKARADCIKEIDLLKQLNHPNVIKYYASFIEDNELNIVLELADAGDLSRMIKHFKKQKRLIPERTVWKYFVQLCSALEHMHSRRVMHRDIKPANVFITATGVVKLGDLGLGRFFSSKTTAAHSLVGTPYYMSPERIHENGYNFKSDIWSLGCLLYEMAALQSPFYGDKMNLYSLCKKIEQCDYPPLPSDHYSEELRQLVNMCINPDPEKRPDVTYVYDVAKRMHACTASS
Sequence of Choline kinase alpha (human) (P35790 whole entry): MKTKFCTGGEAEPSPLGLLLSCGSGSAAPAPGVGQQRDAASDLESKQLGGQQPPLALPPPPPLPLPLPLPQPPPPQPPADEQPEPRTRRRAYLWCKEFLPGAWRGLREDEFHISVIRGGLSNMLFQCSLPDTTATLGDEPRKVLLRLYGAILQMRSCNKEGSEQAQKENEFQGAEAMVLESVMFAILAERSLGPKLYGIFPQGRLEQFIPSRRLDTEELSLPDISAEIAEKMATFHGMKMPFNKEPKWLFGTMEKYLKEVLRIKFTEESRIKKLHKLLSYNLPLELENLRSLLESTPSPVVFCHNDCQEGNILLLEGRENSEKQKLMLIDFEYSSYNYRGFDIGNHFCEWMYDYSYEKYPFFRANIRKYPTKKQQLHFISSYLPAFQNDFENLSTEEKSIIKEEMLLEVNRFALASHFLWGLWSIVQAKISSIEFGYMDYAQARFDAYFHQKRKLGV
Sequence of Potassium channel tetramerisation domain containing 18 (human) (Q6PI47 whole entry, the tested form may be a part): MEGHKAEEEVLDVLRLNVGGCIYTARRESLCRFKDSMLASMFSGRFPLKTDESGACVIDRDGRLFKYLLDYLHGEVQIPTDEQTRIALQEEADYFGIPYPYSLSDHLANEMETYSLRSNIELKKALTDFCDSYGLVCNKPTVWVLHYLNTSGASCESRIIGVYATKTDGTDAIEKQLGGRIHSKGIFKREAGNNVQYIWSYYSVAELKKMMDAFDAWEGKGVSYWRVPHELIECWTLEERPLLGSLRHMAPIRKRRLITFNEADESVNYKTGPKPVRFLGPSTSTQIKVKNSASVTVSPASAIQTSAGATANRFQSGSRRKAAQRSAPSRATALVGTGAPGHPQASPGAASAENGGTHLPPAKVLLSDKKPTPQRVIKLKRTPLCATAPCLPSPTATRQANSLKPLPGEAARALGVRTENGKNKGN
Sequence of p 53-regulated DDA3 (DDA3)/proline/serine-rich coiled-coil 1 (human) (Q6PGN9 other isoform, or with tags, fused parts or gaps limits assumed): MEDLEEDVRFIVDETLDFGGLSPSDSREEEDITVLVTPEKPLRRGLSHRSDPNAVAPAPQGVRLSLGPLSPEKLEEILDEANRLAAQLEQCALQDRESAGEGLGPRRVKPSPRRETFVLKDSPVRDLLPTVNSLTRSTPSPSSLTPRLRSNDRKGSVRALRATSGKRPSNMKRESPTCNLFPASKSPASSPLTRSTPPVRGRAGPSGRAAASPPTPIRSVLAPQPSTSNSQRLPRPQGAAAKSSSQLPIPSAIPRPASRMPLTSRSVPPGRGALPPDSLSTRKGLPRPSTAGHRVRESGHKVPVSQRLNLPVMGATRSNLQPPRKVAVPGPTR
Sequence of Cortactin (human) (Q14247 other isoform, or with tags, fused parts or gaps limits assumed): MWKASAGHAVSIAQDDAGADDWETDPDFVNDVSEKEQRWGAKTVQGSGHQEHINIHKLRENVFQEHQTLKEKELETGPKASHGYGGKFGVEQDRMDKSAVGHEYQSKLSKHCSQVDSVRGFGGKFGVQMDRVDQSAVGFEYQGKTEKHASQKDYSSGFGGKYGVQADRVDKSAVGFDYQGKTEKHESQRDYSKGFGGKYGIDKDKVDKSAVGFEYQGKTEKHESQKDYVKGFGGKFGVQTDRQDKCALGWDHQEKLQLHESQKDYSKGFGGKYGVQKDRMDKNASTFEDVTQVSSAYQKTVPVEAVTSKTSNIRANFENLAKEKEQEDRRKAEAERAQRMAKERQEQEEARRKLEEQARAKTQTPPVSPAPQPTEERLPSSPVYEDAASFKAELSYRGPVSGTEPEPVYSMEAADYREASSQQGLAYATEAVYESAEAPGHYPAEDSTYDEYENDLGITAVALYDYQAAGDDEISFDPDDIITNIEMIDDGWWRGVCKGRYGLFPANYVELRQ
Sequence of Cyclin B3 (human) (Q8WWL7 1-111 limits assumed): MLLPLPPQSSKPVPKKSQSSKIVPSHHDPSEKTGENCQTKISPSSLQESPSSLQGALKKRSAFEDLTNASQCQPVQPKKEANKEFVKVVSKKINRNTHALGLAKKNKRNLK
Sequence of AF4/FMR2 family, member 4 (human) (Q9UHB7 other isoform, or with tags, fused parts or gaps limits assumed): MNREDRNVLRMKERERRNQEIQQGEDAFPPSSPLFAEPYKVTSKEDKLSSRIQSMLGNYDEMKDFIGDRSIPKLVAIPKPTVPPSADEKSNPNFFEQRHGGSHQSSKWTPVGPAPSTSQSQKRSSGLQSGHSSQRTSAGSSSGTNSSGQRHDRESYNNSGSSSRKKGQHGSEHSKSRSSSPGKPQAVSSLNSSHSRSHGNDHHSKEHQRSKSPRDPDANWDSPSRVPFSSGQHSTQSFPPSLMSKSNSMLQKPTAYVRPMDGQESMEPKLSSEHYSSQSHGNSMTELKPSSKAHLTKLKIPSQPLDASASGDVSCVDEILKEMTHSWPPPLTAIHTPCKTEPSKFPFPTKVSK

biotinylated full-length Dengue virus capsid (DENV C) protein
Signal Intensity [1]: 1250 | Z-score [1]: 5.02 | Signal Intensity [2]: 1070 | Z-score [2]: 4.19 | Signal Intensity (Aurora kinase A (human)): 1160 | Z-score (Aurora kinase A (human)): 4.59 | Signal Intensity [3]: 1030 | Z-score [3]: 4.01 | Signal Intensity [4]: 1020 | Z-score [4]: 3.94 | Signal Intensity [5]: 969 | Z-score [5]: 3.72 | Signal Intensity [6]: 918 | Z-score [6]: 3.48 | Signal Intensity [7]: 1740 | Z-score [7]: 7.26 | Signal Intensity (Cortactin (human)): 3080 | Z-score (Cortactin (human)): 13.4 | Signal Intensity (Cyclin B3 (human)): 854 | Z-score (Cyclin B3 (human)): 3.19 | Signal Intensity [8]: 1670 | Z-score [8]: 6.93 | Signal Intensity [9]: 816 | Z-score [9]: 3.02 | Signal Intensity [10]: 852 | Z-score [10]: 3.18 | Signal Intensity [11]: 1940 | Z-score [11]: 8.18 | Signal Intensity [12]: 875 | Z-score [12]: 3.29 | Signal Intensity [13]: 918 | Z-score [13]: 3.49 | Signal Intensity [14]: 928 | Z-score [14]: 3.53 | Signal Intensity [15]: 929 | Z-score [15]: 3.53 | Signal Intensity [16]: 856 | Z-score [16]: 3.2 | Signal Intensity [17]: 841 | Z-score [17]: 3.13 | Signal Intensity [18]: 1140 | Z-score [18]: 4.52 | Signal Intensity [19]: 882 | Z-score [19]: 3.32 | Signal Intensity [20]: 2570 | Z-score [20]: 11.1 | Signal Intensity [21]: 972 and 818 | Z-score [21]: 3.73 and 3.02 | Signal Intensity [22]: 1350 | Z-score [22]: 5.49 | Signal Intensity [23]: 845 | Z-score [23]: 3.15 | Signal Intensity [24]: 1160 | Z-score [24]: 4.59 | Signal Intensity [25]: 840 | Z-score [25]: 3.13 | Signal Intensity [26]: 822 | Z-score [26]: 3.04

biotinylated full-length Dengue virus capsid (DENV C) protein (other; other documents disagree on this pair)
Signal Intensity [27]: 997 | Z-score [27]: 3.85
